This assay concerns ITACITACAYDGE
The experiment in a line: Heterocyclization of leaderless substrate peptide ITACITACAYDGE by fused-MicD/PatD enzymes (LC-ESI-MS, MALDI-TOF-MS, HPLC-ESI-MS). The assay is classed as biochemical. The note with it: 20-30 μM enzyme, 100-110 μM peptide, 5 mM ATP, 5 mM MgCl2, 27° C., 16 h. As for the experimental part:
The Reaction was performed in 100 mM Tris pH 8.0 supplemented with 150 mM NaCl, 5 mM ATP and 5 mM MgCl2 and contained 20 μM enzyme and 100 μM peptide. The mixture was incubated at 27° C. for 16 h. The unprocessed substrate has a molecular weight of 1329.5 Da.
Reaction was performed in 50 mM Bicine pH 9.0 supplemented with 150 mM NaCl, 5 mM ATP and 5 mM MgCl2 and contained 30 μM enzyme and 110 μM peptide. The mixture was incubated at 27° C. for 16 h. The unprocessed substrate has a molecular weight of 1219.5 Da.
Each reaction contained 100 mM Tris pH 8.0, 150 mM NaCl, 5 mM ATP and 5 mM MgCl2, 20 μM of the respective enzyme and 100 μM substrate peptide, and was incubated at 27° C. for 16 h. The unprocessed substrate has a molecular weight of 1329.5 Da.
Reaction was performed in 50 mM Bicine pH 9.0 supplemented with 150 mM NaCl, 5 mM ATP and 5 mM MgCl2 and contained 30 μM enzyme and 110 μM peptide. The mixture was incubated at 27° C. for 16 h. The unprocessed substrate has a molecular weight of 1329.5 Da.
Only 1 peak (9.254 min) indicates the reaction product is only one species. […] Multiple peaks of low intensity compared with m/z=1258.5 can be attributed to noise. Product was purified from the enzyme and ATP using size exclusion chromatography (Superdex 30, GE Healthcare) and exchanged into 50 mM Bicine pH 9.0, 500 mM NaCl and 5% DMSO.

B1: MicD-Q21-9GA: fused-MicD: leader from Q21, 9 GA repeats linker, KL, MicD (SEQ ID NO: 41) (protein)
chain: MSHHHHHHDYDENLYFQGSQLSSQLAELSEEALGDAGAGAGAGAGAGAGAGAGAKLMQSTPLLQIQPHFHVEVIEPKQVYLLGEQANYALTGQLYCQILPLLDGQHSREQIVEKLDGEVPSEYIDYVLDRLAEKGYLTEAAPELSSEVAAFWSELGIAPPVAAEALRQSVTLTPVGNISEVTVAALTTALRDIGISVQTPTEAGSPTALNVVLTDDYLQPELAKINKQALESQQTWLLVKPVGSVLWLGPVFVPGKTGCWDCLAHRLRGNREVEASVLQQKQAQQQRNGQSGSVIGCLPTARATLPSTLQTGLQFAATEIAKWIVKHHVKATAPGTVFFPTLDGKIITFNHTVIDLKSHVLVRRSQCPSCGDRQILHRQGFEPVKLVSRRKHFTHDGGHRAFTPEQTVQKYQHLVSPITGVVTELVRLTDPANPLVHTYKAGHAFGSATTLRGLRNTLKYKSSGKGKTDIQSRASGLCEAIERYSGIFQGDEPRKRATLAELGDLALHPESLLYFSNTQYANREELNAQGSAAAYRWIPNRFDVSQAIDWTPVWSLTEQKHKYVPTAFCYYGYPLPEEQRFCKADSNGNAAGNTLEEAILQGFLELVERDSIAMWWYNRIRRPAVDLSTFDEPYFVDLQQFYQQQNRELWVLDVTADLGIPAFAGFSRRTVGTSERISIGFGAHLDPTIAILRALTEVSQVGLELDKIPDDKLDGESKDWMLNVTVENHPWLAPDPSVPMKTASDYPKRWSDDIHTDVMNCVKTAQTAGLEVMVLDQTRPDIGLNVVKVIIPGMRTFWTRFGQGRLYDIPVKLGWLDAPLAEEELNQTNIPF
modifications: Modified heterocyclase MicroD_Q21_9GA
For the molecule B1, the “heterocyclized species produced from ITACITACAYDGE” value is recorded as 4. Moreover, the “heterocyclized species produced from ITACITACAYDGE” value (listed as MicD-Q21-9G) is listed as “only a single four heterocycle species”.
